Like-named read-outs stand apart in the source and are kept apart here.
Assays:
[1] = molecular target: T1, human Proprotein Convertase Subtilisin-like/Kexin type 9 (UniProt Q8NBP7 31-692); experiment: PCSK9-LDLR blocking ELISA
[2] = molecular target: T1, human Proprotein Convertase …; experiment: ELISA
Target sequence in this assay (Q8NBP7 31-692): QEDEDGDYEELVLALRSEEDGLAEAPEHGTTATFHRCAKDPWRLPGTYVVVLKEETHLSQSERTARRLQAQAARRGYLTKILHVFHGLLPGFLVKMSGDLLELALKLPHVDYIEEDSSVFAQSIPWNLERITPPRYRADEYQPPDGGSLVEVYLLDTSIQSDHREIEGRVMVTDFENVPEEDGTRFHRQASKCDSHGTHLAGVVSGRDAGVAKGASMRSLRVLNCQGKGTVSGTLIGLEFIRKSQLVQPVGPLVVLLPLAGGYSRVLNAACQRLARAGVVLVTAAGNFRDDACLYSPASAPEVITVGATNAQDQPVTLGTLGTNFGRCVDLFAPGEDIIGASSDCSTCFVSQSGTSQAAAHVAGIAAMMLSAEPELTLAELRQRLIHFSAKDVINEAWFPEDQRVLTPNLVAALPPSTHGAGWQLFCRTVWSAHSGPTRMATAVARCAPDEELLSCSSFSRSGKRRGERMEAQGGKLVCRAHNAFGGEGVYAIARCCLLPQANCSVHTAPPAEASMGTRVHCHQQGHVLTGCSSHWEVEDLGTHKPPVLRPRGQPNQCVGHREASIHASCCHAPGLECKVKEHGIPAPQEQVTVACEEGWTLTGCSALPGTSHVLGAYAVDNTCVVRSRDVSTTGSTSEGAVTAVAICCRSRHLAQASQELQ

cynomolgus monkey PCSK9 = molecular target: T2, cynomolgus monkey PCSK9 (cynomolgus monkey, UniProt A0A7N9D9N8 150-747); experiment: ELISA
T2 chain: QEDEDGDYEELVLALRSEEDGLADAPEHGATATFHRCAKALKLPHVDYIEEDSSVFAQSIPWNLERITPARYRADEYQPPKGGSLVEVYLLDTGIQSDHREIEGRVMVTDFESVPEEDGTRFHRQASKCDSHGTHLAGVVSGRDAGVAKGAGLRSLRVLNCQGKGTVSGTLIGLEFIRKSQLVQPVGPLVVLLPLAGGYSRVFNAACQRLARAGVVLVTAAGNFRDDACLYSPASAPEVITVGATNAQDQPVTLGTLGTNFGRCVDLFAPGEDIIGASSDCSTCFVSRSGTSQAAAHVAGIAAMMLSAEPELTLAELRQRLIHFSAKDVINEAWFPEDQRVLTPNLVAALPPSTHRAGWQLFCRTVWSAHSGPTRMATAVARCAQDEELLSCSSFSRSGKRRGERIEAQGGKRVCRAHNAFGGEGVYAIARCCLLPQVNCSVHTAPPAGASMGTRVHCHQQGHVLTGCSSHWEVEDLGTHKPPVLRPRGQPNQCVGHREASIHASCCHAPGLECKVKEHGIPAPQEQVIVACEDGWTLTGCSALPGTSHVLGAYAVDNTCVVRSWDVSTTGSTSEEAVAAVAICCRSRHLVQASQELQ

[3] = molecular target: T1, human Proprotein Convertase …; experiment: ELISA; remark: listed apart in the source
[4] = molecular target: T1, human Proprotein Convertase …; experiment: ELISA; remark: listed apart in the source
[5] = molecular target: T1, human Proprotein Convertase …; experiment: PCSK9-LDLR blocking ELISA; remark: listed apart in the source

B1: Ab9 (antibody, V domains shown)
VH: QSVEESGGRLVTPGTPLTLTCTVSGIDLSSYAMGWVRQAPGKGLEYIGIIVSYGPTYYASWAKGRFTISKTSTTVDLKITSPTAEDTATYFCARDLDANSSGYYGCFNIWGQGTLVTVSS
VL: AVVLTQTPASVSAAVGGTVTIKCQASQSISTALAWYQQKPGQPPKLLIYAASPLASGVSSRFKSSGSGTEFTLTISDLECADAATYYCQSYYGSSNIAFGGGTELEILR
IC50 [1]: 1590 pM

B2: Ab4 (antibody, V domains shown)
VH: QSVEESGGRLVTPGTPLTLTCTVSGIDLSSYAMIWVRQAPEKGLEYIGYIGGIDSTYYASWAKGRFTISKTSTTVDLKMTSPTTEDTATYFCGRWSGTSGYNTIWGPGTLVTVSS
VL: DVVMTQTPASVEAAVGGTVTIKCQASQSIYSNLAWYQQKPGQPPKLLIYGASNLASGVSSRFKGSRSGTEYTLTISDLECADAATYYCQCTGGGDSGNTFGGGTEVVVKR
EC50 [2]: 84.3 pM

B3: Ab17 (antibody, V domains shown)
VH: QEQLEESGGDLVKPEGSLTLTCTASGFSFSSSYWICWVRQAPGKGLEWIGCIRPGSADYYASWAKGRFTISRASSSTVTLQMTSLTAADTATYFCASDINDGWLGQFNLWGPGTLVTVSS
VL: DVVMTQTPASVEAAVGGTVTIKCQASLSIADYLAWYLQKPGQPPKLLIYRASTLASGVPSRFKGSGSGTEYTLTISDLECADAATYYCQSYYSVTTNTYGNTFGGGTEVVVKR
EC50 (cynomolgus monkey PCSK9): 278 pM | EC50 [3]: 301 pM

B4: Ab1 (antibody, V domains shown)
VH: QSVEESGGRLVTPGTPLTLTCTVSGFSLSSYWMTWVRQAPGKGLEYIGIISSSGSTYYATWAKGRFTISKTSSTTVDLEITSPTTEDTATYFCARDSAFSSGLEFNIWGPGTLVTVSS
VL: AYDLTQTPASVEVAVGGTVTIKCQASQSVYSNWLSWYQQKPGQPPKLLIYDASDLASGVPSRFKGSGSGTQFTLTISGVQCDDAATYYCQQGQSSSDIDNTFGGGTEVVVKR
EC50 [2]: 117 pM

B5: Ab3 (antibody, V domains shown)
VH: QSVEESGGRLVTPGGSLTLTCTASGFSLSSYYMSWVRQAPGKGLEWIGIIYPSGSTYYASWAKGRFTISKTSTTVDLKITSPTVEDTATYFCARGGAYATLNLWGPGTLVTVSS
VL: AVLTQTPSPVSAAVGGTVTISCQSSQSVYHNNLLSWYQQKPGQPPKLLIYDASKLTSGVSSRFSGSGSGTQFTLTISGVQCDDAATYYCLGGYDDDADNGFGGGTEVVVKR
EC50 [2]: 105 pM

B6: Ab16 (antibody, V domains shown)
VH: QEQLVESGGGLVQPEGSLTLTCTASGFSFSSDYWICWVRQAPGKGLEWIGCIRDGGGSYYANWAKGRLTISMTSSTTVGLKMTSLTAADTATYFCASDINDGWLGQFNLWGPGTLVTVSS
VL: DIVMTQTPASVEAAVGGTVTIKCQASQSISSYLAWYQQKPGQPPKLLIYRASTLASGVPSRFSGSGSGTEFTLTISDLECADAATYYCQSYYSVTTVTYGNTFGGGTEVVVKR
EC50 (cynomolgus monkey PCSK9): 310 pM | EC50 [3]: 286 pM

B7: Ab2 (antibody, V domains shown)
VH: QSVEESGGRLVTPGTPLTLTCTVSGFSLSSYAMSWVRQAPGKGLEWIGIIDAIDNTYYASWAKGRFTISKTSTTVDLKMTSLTTGDTATYFCARASILGYSIATGFNIWGPGTLVTVSS
VL: AYDMTQTPASVEVAVGGTVTIKCQASQSISSHLAWYQQKSGQPPKLLIYRASTLESGVSSRFKGSGSGTEFTLTISDLECADAATYYCQQGYGVSDVDNGFGGGTEVVVKR
EC50 [2]: 93.6 pM

B8: Ab19 (antibody, V domains shown)
VH: EVQLVESGGGLVQPGGSLRLSCAASGIDLSSYAMGWVRQAPGKGLEYIGIIVSYGPTYYASWAKGRFTISRDNSKNTVYLQMNSLRAEDTATYFCARDLDAQSSGYYGAFNIWGQGTLVTVSS
VL: DIQMTQSPSTLSASVGDRVTITCQASQSISTALAWYQQKPGKAPKLLIYAASPLASGVPSRFSGSGSGTEFTLTISSLQPDDFATYYCQSYYGSSNIAFGGGTKVEIKR
EC50 [4]: 943 pM

B9: Ab22 (antibody, V domains shown)
VH: EVQLVESGGGLVQPGGSLRLSCAASGFSLSSYAMNWVRQAPGKGLEWIGAIRSSGATFFASSVNGRFTISRDNSKNTVYLQMNSLRAEDTAVYYCARDTNDGWYINRLDLWGQGTLVTVSS
VL: AVLTQSPSTLSASVGDRVTITCQSSKSVYSNYLSWFQQKPGKAPKFLIYKASTLASGVPSRFSGSGSGTEFTLTISSLQPDDFATYYCAGGDTNIADNAFGGGTKVEIKR
IC50 [5]: 3300 pM

— patent US20160194408A1 (published 2016)
